Data reported in IntAct's records for PubMed 35512704.

B1: Mothers against decapentaplegic homolog 4 (Homo sapiens), Q13485 (parent)
chain: MDNMSITNTPTSNDACLSIVHSLMCHRQGGESETFAKRAIESLVKKLKEKKDELDSLITAITTNGAHPSKCVTIQRTLDGRLQVAGRKGFPHVIYARLWRWPDLHKNELKHVKYCQYAFDLKCDSVCVNPYHYERVVSPGIDLSGLTLQSNAPSSMMVKDEYVHDFEGQPSLSTEGHSIQTIQHPPSNRASTETYSTPALLAPSESNATSTANFPNIPVASTSQPASILGGSHSEGLLQIASGPQPGQQQNGFTGQPATYHHNSTTTWTGSRTAPYTPNLPHHQNGHLQHHPPMPPHPGHYWPVHNELAFQPPISNHPAPEYWCSIAYFEMDVQVGETFKVPSSCPIVTVDGYVDPSGGDRFCLGQLSNVHRTEAIERARLHIGKGVQLECKGEGDVWVRCLSDHAVFVQSYYLDREAGRAPGDAVHKIYPSAYIKVFDLRQCHRQMQQQAATAQAAAAAQAAAVAGNIPGPGSVGGIAPAISLSAAAGIGVDDLRRLCILRMSFVKGWGPDYPRQSIKETPCWIEIHLHRALQLLDEVLHTMPIADPQPLD

Variants of: B1
Conditions: with grm1_human GRM1, Q13255

Row | effect of a mutation on the interaction | Variant
1 | with no effect | R361C

Variants of: B1
Conditions: with grm3_human GRM3, Q14832
Chain of grm3_human GRM3, Q14832 (Q14832 whole entry, looked up): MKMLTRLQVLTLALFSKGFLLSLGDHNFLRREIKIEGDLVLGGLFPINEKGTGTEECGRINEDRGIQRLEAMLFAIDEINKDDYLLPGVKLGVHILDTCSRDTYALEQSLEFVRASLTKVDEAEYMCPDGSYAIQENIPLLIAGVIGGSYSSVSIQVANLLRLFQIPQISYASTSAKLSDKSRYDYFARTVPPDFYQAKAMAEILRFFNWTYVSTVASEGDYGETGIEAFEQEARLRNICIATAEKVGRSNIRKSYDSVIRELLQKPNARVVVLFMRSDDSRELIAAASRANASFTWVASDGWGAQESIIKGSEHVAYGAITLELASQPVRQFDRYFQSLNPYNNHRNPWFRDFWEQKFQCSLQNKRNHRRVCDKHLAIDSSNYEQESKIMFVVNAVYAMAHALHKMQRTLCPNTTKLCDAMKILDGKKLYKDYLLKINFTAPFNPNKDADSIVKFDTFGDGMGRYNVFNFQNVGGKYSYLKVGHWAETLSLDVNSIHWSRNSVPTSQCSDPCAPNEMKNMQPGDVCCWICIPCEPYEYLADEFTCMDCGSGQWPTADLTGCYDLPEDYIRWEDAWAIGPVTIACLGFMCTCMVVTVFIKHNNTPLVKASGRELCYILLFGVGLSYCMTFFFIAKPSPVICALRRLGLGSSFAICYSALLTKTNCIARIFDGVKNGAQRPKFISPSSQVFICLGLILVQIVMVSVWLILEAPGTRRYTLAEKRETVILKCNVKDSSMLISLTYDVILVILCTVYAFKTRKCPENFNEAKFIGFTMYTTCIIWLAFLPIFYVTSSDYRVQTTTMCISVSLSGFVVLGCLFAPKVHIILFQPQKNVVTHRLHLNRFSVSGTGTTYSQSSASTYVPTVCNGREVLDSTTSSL

Row | effect of a mutation on the interaction | Variant
2 | with no effect | R361C

Variants of: B1
Conditions: with gsk3a_human GSK3A

Row | effect of a mutation on the interaction | Variant
3 | with no effect | R361C

Variants of: B1
Conditions: with hdac1_human HDAC1, Q13547

Row | effect of a mutation on the interaction | Variant
4 | with no effect | R361C

Variants of: B1
Conditions: with hdac3_human HDAC3, O15379
Chain of hdac3_human HDAC3, O15379 (O15379 whole entry): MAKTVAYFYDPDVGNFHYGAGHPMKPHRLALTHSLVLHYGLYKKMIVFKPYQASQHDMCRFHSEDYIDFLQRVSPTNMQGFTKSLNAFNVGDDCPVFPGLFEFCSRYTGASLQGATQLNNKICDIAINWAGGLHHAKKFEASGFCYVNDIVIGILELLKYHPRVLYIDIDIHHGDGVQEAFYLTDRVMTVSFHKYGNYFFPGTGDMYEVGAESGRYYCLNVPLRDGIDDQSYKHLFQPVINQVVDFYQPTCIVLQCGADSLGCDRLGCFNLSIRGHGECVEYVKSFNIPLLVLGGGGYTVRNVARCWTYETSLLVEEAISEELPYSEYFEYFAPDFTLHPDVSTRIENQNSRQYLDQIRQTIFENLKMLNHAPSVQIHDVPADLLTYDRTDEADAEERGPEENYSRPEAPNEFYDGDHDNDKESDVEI

Row | effect of a mutation on the interaction | Variant
5 | with no effect | R361C

Variants of: B1
Conditions: with hgf_human HGF

Row | effect of a mutation on the interaction | Variant
6 | with no effect | R361C

Variants of: B1
Conditions: with h31_human H3C1, P68431

Row | effect of a mutation on the interaction | Variant
7 | with no effect | R361C

Variants of: B1
Conditions: with hlab_human HLA-B

Row | effect of a mutation on the interaction | Variant
8 | with no effect | R361C

Variants of: B1
Conditions: with hnf1a_human HNF1A

Row | effect of a mutation on the interaction | Variant
9 | with no effect | R361C

Variants of: B1
Conditions: with rash_human HRAS

Row | effect of a mutation on the interaction | Variant
10 | with no effect | R361C

Variants of: B1
Conditions: with hs90a_human HSP90AA1, P07900

Row | effect of a mutation on the interaction | Variant
11 | with no effect | R361C

Variants of: B1
Conditions: with il7ra_human IL7R

Row | effect of a mutation on the interaction | Variant
12 | with no effect | R361C

Variants of: B1
Conditions: with irf6_human IRF6, O14896

Row | effect of a mutation on the interaction | Variant
13 | with no effect | R361C

Variants of: B1
Conditions: with irs1_human IRS1, P35568

Row | effect of a mutation on the interaction | Variant
14 | with no effect | R361C

Variants of: B1
Conditions: with jak1_human JAK1, P23458

Row | effect of a mutation on the interaction | Variant
15 | with no effect | R361C

Variants of: B1
Conditions: with jak3_human JAK3, P52333
Chain of jak3_human JAK3, P52333 (P52333 whole entry): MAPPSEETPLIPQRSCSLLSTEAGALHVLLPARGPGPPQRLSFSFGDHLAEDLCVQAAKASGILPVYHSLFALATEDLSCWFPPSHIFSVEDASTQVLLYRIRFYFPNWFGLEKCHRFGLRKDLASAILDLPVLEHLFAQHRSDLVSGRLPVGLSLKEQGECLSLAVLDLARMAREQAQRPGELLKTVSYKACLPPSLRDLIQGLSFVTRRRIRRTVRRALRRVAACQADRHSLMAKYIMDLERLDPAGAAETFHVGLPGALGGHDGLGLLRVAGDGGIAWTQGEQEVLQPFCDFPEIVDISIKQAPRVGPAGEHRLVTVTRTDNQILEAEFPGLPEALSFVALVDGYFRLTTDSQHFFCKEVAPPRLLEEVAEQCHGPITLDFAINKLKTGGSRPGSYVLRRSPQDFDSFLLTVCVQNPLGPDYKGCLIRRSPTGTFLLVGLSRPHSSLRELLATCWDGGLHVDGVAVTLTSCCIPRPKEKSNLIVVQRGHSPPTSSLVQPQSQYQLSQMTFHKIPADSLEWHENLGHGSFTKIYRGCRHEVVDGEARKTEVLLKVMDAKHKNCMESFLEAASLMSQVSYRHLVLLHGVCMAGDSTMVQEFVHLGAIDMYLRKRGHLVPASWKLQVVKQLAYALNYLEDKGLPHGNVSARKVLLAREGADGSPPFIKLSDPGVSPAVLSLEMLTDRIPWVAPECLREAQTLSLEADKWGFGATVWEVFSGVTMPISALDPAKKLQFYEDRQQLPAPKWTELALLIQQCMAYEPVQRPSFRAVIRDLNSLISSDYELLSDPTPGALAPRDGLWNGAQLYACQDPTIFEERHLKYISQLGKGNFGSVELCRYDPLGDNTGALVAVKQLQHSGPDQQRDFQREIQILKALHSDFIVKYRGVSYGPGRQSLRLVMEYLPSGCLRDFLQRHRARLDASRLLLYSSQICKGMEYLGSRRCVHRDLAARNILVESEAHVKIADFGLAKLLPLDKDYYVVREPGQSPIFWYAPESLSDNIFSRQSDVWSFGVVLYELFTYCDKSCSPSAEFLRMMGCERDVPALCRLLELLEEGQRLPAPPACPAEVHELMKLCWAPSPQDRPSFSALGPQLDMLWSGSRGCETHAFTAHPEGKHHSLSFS

Row | effect of a mutation on the interaction | Variant
16 | with no effect | R361C

Variants of: B1
Conditions: with kdm5c_human KDM5C

Row | effect of a mutation on the interaction | Variant
17 | with no effect | R361C

Variants of: B1
Conditions: with vgfr2_human KDR

Row | effect of a mutation on the interaction | Variant
18 | with no effect | R361C

Variants of: B1
Conditions: with keap1_human KEAP1, Q14145

Row | effect of a mutation on the interaction | Variant
19 | with no effect | R361C

Variants of: B1
Conditions: with klf4_human KLF4, O43474

Row | effect of a mutation on the interaction | Variant
20 | with no effect | R361C

Variants of: B1
Conditions: with maga6_human MAGEA6, P43360

Row | effect of a mutation on the interaction | Variant
21 | with no effect | R361C

Variants of: B1
Conditions: with mp2k7_human MAP2K7, O14733

Row | effect of a mutation on the interaction | Variant
22 | with no effect | R361C

Variants of: B1
Conditions: with m3k1_human MAP3K1, Q13233

Row | effect of a mutation on the interaction | Variant
23 | with no effect | R361C

Variants of: B1
Conditions: with mk10_human MAPK10, P53779

Row | effect of a mutation on the interaction | Variant
24 | with no effect | R361C

Variants of: B1
Conditions: with mk14_human MAPK14, Q16539

Row | effect of a mutation on the interaction | Variant
25 | with no effect | R361C

Variants of: B1
Conditions: with mk03_human MAPK3, P27361

Row | effect of a mutation on the interaction | Variant
26 | with no effect | R361C

Variants of: B1
Conditions: with mk04_human MAPK4, P31152

Row | effect of a mutation on the interaction | Variant
27 | with no effect | R361C

Variants of: B1
Conditions: with mk06_human MAPK6, Q16659
Chain of mk06_human MAPK6, Q16659 (Q16659 whole entry): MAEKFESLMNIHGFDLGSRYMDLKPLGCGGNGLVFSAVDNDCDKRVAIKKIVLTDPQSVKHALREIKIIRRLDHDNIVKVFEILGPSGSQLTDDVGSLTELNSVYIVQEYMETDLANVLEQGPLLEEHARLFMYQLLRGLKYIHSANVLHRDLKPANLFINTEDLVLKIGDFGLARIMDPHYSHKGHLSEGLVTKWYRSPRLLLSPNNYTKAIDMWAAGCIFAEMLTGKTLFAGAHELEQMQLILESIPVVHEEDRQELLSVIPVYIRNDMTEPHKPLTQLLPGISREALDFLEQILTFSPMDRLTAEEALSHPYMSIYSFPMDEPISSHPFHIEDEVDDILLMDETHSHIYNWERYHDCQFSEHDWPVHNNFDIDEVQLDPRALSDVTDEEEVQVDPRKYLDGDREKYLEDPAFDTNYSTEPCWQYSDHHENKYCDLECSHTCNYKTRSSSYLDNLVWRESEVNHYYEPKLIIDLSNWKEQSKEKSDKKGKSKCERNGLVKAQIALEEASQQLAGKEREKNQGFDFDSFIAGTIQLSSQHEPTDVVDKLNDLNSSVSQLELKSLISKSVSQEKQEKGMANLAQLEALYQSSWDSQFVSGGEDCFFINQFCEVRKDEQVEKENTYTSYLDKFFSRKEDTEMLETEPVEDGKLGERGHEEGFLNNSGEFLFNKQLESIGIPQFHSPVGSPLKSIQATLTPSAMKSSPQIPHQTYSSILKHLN

Row | effect of a mutation on the interaction | Variant
28 | with no effect | R361C

Variants of: B1
Conditions: with mcl1_human MCL1, Q07820

Row | effect of a mutation on the interaction | Variant
29 | with no effect | R361C

Variants of: B1
Conditions: with mitf_human MITF

Row | effect of a mutation on the interaction | Variant
30 | with no effect | R361C

Variants of: B1
Conditions: with myc_human MYC

Row | effect of a mutation on the interaction | Variant
31 | with no effect | R361C

Variants of: B1
Conditions: with nf1_human NF1, P21359

Row | effect of a mutation on the interaction | Variant
32 | with no effect | R361C

Variants of: B1
Conditions: with merl_human NF2, P35240

Row | effect of a mutation on the interaction | Variant
33 | with no effect | R361C

Variants of: B1
Conditions: with nfic_human NFIC

Row | effect of a mutation on the interaction | Variant
34 | with no effect | R361C

Variants of: B1
Conditions: with notc2_human NOTCH2, Q04721

Row | effect of a mutation on the interaction | Variant
35 | with no effect | R361C

Variants of: B1
Conditions: with pak3_human PAK3, O75914
Chain of pak3_human PAK3, O75914 (O75914 whole entry, looked up): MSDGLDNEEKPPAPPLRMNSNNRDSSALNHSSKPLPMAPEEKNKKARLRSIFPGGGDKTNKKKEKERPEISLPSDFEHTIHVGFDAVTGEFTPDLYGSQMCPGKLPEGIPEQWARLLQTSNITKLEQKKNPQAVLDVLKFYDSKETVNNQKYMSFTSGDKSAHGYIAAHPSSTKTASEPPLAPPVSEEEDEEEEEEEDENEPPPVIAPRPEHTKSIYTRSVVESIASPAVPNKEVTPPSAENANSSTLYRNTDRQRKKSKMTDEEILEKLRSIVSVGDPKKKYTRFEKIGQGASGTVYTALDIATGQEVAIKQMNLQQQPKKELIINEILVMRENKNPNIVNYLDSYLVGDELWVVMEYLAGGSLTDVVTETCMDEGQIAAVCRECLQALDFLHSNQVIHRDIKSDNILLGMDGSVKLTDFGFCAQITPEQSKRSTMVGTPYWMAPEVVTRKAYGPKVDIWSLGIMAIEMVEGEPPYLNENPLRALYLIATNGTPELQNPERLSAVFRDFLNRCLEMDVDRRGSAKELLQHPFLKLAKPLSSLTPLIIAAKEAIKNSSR

Row | effect of a mutation on the interaction | Variant
36 | with no effect | R361C

Variants of: B1
Conditions: with pax5_human PAX5, Q02548

Row | effect of a mutation on the interaction | Variant
37 | with no effect | R361C

Variants of: B1
Conditions: with pax9_human PAX9, P55771

Row | effect of a mutation on the interaction | Variant
38 | with no effect | R361C

Variants of: B1
Conditions: with pb1_human PBRM1, Q86U86

Row | effect of a mutation on the interaction | Variant
39 | with no effect | R361C

Variants of: B1
Conditions: with pcbp1_human PCBP1, Q15365

Row | effect of a mutation on the interaction | Variant
40 | with no effect | R361C

Variants of: B1
Conditions: with pgfra_human PDGFRA

Row | effect of a mutation on the interaction | Variant
41 | with no effect | R361C

Variants of: B1
Conditions: with pgfrb_human PDGFRB

Row | effect of a mutation on the interaction | Variant
42 | with no effect | R361C

Variants of: B1
Conditions: with pdk1_human PDK1, Q15118

Row | effect of a mutation on the interaction | Variant
43 | with no effect | R361C

Variants of: B1
Conditions: with PIK3C2B

Row | effect of a mutation on the interaction | Variant
44 | with no effect | R361C

Variants of: B1
Conditions: with pk3c3_human PIK3C3, Q8NEB9

Row | effect of a mutation on the interaction | Variant
45 | with no effect | R361C

Variants of: B1
Conditions: with pk3ca_human PIK3CA

Row | effect of a mutation on the interaction | Variant
46 | with no effect | R361C

Variants of: B1
Conditions: with pk3cg_human PIK3CG

Row | effect of a mutation on the interaction | Variant
47 | with no effect | R361C

Variants of: B1
Conditions: with p85a_human PIK3R1, P27986

Row | effect of a mutation on the interaction | Variant
48 | with no effect | R361C

Variants of: B1
Conditions: with p85b_human PIK3R2, O00459

Row | effect of a mutation on the interaction | Variant
49 | with no effect | R361C

Variants of: B1
Conditions: with dpod1_human POLD1, P28340

Row | effect of a mutation on the interaction | Variant
50 | with no effect | R361C

Variants of: B1
Conditions: with dpoe1_human POLE

Row | effect of a mutation on the interaction | Variant
51 | with no effect | R361C

Variants of: B1
Conditions: with lipa1_human PPFIA1, Q13136
Chain of lipa1_human PPFIA1, Q13136 (Q13136 whole entry): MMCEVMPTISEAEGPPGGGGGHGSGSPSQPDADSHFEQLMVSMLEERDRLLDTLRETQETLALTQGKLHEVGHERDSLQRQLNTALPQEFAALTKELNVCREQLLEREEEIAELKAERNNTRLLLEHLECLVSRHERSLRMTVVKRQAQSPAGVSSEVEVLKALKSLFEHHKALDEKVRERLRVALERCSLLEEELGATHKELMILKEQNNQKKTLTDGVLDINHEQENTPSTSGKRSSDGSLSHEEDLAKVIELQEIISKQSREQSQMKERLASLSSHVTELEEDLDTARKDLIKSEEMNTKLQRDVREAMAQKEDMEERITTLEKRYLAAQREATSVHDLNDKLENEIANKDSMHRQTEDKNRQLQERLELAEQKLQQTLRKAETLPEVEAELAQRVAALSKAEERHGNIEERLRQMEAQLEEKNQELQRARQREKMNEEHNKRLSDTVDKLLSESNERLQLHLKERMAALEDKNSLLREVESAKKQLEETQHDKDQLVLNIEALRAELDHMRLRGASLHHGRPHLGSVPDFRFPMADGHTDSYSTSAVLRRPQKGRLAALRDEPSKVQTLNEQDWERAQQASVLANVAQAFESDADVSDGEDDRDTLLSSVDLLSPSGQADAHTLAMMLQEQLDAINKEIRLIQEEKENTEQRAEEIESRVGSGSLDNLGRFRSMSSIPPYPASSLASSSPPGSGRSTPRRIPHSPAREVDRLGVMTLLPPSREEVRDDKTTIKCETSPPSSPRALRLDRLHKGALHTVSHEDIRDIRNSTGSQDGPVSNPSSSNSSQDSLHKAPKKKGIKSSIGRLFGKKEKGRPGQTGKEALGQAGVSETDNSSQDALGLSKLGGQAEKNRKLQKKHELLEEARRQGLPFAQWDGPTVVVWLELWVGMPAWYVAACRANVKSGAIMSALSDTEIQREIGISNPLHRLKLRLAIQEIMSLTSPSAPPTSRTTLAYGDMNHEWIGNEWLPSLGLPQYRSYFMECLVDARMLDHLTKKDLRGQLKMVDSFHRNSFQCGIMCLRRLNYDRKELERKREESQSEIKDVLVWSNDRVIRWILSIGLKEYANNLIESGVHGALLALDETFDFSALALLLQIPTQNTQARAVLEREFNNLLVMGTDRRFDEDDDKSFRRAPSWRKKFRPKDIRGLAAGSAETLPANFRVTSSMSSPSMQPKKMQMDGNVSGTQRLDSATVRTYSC

Row | effect of a mutation on the interaction | Variant
52 | with no effect | R361C

Variants of: B1
Conditions: with 2aaa_human PPP2R1A

Row | effect of a mutation on the interaction | Variant
53 | with no effect | R361C

Variants of: B1
Conditions: with prdm1_human PRDM1, O75626

Row | effect of a mutation on the interaction | Variant
54 | with no effect | R361C

Variants of: B1
Conditions: with aapk2_human PRKAA2, P54646

Row | effect of a mutation on the interaction | Variant
55 | with no effect | R361C

Variants of: B1
Conditions: with aakb2_human PRKAB2, O43741

Row | effect of a mutation on the interaction | Variant
56 | with no effect | R361C

Variants of: B1
Conditions: with prss8_human PRSS8, Q16651

Row | effect of a mutation on the interaction | Variant
57 | with no effect | R361C

Variants of: B1
Conditions: with ptk6_human PTK6, Q13882

Row | effect of a mutation on the interaction | Variant
58 | with no effect | R361C

Variants of: B1
Conditions: with tf65_human RELA

Row | effect of a mutation on the interaction | Variant
59 | with no effect | R361C

Variants of: B1
Conditions: with rnf43_human RNF43, Q68DV7

Row | effect of a mutation on the interaction | Variant
60 | with no effect | R361C
